Reference: doi:10.1101/2020.10.05.326918 (bioRxiv, 2020)

T1: MED23 (Mus musculus (endogenous in CH12 cells), UniProt Q80YQ2 1-1367)
T1 sequence (looked up): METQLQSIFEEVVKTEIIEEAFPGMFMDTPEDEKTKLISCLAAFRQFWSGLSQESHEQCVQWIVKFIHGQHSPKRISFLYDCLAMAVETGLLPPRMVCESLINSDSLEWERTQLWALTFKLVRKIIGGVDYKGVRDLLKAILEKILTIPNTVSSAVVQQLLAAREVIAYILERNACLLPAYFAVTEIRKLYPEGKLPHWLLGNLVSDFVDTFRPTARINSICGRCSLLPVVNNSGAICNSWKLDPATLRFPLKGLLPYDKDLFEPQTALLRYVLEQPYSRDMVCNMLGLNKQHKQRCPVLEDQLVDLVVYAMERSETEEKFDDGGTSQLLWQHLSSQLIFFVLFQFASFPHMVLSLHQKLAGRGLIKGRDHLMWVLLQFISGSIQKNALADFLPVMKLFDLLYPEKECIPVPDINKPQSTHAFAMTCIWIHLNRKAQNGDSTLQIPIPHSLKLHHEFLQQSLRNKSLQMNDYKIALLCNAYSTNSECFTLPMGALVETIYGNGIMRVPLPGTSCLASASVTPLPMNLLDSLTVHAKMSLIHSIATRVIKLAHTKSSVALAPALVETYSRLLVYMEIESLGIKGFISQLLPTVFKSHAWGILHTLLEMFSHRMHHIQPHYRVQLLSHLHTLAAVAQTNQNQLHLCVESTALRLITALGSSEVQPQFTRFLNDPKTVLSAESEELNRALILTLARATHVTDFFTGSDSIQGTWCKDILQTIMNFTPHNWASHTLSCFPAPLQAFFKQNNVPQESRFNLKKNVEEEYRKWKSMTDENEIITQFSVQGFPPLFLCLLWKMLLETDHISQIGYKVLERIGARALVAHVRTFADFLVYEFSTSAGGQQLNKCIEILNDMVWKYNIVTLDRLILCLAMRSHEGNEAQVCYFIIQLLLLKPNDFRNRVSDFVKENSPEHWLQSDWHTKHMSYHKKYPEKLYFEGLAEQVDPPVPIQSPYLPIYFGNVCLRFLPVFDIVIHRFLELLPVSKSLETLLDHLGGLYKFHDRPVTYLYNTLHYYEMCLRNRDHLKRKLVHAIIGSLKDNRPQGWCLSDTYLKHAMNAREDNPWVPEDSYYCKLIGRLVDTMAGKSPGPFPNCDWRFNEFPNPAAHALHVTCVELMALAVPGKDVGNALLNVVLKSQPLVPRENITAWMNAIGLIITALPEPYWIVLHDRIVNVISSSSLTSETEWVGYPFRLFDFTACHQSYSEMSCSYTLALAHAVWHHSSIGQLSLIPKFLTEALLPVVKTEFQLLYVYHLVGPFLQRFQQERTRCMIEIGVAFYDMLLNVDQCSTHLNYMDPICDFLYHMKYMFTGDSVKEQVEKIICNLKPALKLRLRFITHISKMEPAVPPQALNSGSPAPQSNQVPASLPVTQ

T2: MED16 (Mus musculus (endogenous in CH12 cells), UniProt Q6PGF3 1-828)
T2 sequence (looked up): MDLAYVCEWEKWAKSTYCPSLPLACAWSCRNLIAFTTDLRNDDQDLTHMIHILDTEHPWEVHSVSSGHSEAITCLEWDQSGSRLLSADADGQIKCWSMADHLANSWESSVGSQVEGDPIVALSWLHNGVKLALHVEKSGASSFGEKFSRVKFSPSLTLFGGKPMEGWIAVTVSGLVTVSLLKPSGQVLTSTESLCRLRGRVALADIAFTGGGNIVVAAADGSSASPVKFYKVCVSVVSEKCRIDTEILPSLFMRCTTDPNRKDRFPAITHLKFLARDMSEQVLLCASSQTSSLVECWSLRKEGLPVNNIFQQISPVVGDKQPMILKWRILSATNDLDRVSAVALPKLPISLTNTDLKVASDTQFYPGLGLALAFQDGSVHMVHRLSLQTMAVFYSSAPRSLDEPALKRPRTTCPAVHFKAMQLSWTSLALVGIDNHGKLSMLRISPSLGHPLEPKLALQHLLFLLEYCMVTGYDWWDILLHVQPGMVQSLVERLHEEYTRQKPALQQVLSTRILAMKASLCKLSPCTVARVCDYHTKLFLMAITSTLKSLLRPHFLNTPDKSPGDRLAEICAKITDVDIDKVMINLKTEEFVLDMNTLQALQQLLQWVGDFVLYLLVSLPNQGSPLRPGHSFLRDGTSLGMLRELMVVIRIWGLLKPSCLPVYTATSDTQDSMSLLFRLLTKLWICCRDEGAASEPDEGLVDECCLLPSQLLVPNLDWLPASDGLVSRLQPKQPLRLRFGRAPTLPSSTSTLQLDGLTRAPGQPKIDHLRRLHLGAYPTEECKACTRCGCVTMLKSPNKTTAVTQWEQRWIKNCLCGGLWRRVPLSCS

T3: MED24 (Mus musculus (endogenous in CH12 cells), UniProt Q99K74 1-987)
T3 sequence (looked up): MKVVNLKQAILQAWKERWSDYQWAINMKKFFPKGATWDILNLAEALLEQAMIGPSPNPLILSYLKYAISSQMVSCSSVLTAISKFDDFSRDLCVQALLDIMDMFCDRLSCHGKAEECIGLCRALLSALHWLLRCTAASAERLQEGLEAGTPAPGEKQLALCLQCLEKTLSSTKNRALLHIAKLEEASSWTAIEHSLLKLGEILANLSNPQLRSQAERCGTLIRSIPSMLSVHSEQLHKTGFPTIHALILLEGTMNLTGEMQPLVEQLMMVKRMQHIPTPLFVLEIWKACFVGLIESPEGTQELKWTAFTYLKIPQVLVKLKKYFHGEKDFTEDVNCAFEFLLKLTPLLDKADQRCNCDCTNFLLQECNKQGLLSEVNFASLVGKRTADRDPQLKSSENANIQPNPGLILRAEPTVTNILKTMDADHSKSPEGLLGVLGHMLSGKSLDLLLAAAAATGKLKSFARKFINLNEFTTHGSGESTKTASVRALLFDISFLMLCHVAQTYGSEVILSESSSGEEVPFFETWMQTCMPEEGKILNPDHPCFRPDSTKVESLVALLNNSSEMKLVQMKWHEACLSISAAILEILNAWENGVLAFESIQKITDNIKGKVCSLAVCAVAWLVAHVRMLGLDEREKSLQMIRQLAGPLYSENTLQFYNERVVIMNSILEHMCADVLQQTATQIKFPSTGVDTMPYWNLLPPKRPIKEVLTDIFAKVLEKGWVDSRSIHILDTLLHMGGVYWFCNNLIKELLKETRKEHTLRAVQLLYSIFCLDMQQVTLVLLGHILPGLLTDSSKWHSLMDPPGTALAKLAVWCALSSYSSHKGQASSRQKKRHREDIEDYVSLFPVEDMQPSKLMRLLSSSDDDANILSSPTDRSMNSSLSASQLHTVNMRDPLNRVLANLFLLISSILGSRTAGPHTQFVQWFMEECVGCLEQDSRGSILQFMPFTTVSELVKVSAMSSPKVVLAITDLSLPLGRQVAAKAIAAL


Experiments:
Test in all cases: cryo-EM structure
MED23 = molecular target: T1, MED23
MED16 = molecular target: T2, MED16
MED24 = molecular target: T3, MED24
MED14 = MED14 (Mus musculus (endogenous in CH12 cells), UniProt A2ABV5 1-1459)
Sequence of MED14 (A2ABV5 whole entry): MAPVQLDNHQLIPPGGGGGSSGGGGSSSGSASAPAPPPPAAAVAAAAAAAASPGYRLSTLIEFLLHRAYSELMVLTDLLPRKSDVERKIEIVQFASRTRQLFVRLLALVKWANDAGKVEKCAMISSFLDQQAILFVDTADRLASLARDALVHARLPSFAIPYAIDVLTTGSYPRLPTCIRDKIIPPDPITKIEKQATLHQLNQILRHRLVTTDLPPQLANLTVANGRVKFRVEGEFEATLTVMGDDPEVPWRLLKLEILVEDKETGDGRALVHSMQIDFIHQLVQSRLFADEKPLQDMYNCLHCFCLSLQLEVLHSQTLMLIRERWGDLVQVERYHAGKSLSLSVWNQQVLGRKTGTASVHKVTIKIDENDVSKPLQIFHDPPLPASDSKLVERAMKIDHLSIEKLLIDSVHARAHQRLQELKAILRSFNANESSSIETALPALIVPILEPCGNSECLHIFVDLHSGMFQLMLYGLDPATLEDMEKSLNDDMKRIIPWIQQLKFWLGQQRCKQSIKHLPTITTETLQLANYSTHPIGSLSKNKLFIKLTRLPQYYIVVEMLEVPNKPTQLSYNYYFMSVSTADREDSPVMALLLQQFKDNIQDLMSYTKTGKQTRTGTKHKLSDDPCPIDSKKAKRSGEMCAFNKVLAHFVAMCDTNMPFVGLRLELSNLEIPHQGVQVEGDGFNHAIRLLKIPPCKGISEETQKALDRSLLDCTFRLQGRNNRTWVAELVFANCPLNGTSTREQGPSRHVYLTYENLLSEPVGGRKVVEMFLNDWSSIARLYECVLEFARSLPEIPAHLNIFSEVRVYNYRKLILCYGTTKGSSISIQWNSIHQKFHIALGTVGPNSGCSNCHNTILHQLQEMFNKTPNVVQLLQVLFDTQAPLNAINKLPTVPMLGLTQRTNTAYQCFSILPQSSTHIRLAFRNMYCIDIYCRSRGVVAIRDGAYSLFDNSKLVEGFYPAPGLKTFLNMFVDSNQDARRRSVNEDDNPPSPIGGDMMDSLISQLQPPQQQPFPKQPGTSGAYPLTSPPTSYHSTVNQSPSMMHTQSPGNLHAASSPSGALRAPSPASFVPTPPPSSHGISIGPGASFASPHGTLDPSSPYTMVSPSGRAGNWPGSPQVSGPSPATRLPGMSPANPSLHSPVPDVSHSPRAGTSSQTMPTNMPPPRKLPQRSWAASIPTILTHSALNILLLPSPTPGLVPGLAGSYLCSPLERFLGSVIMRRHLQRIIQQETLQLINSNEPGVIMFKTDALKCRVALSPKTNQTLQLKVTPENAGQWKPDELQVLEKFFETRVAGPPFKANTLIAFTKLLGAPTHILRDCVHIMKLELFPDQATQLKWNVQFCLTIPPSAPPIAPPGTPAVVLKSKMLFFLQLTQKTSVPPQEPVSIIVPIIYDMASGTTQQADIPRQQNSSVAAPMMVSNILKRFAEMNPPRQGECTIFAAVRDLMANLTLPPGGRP

Row | binding result (MED23) | binding result (MED16) | binding result (MED24) | binding result (MED14) | Binder
1 | binds | binds | binds |  | MED25 (natural protein, Mus musculus (endogenous in CH12 cells), UniProt Q8VCB2 1-745, looked up) MVPGSEGPARAGGLVADVVFVIEGTANLGPYFEELRKHYLLPAIEYFNGGPPAETDFGGDYGGTQYSLVVFNTVDCAPESYVQCHAPTSSAYEFVTWLDGIKFMGGGGESCSLIAEGLSTALQLFDDFKKMREQIGQTHRVCLLICNSPPYLLPAVESTTYSGCTTESLVQKIGERGIHFSIVSPRKLPALRLLFEKAAPPALLEPLQQPADVSQDPRHMVLVRGLVLPVGGSSTSGSLQTKQAVPLPPAPASAATLSAAPPQALPPVPPQYQVPGNLSAAQVAAQNAVEAAKSQKAGLGPRFSPINPLQQAAPGVGPPFSQAPAPPLAPVPPGAPKPPPASQPSLVSTVAPGPVLAAPAQPGAPSLAGTVTPGGVNGPSAAQLGGPALGGQQSVSNKLLAWSGVLEWQEKPKPASVDANTKLTRSLPCQVYVNHGENLKTEQWPQKLIMQLIPQQLLTTLGPLFRNSRMVQFHFTNKDLESLKGLYRIMGNGFAGCVHFPHTAPCEVRVLMLLYSSKKKIFMGLIPYDQSGFVNGIRQVITNHKQVQQQKLEQQRGMGAQQAPPVLGPILEEQARPPQNLLQLRAPQPQPQGAVGASAATGQPQPQGATQAPTGAPQGPPGAAPGPPPSGPILRPQNPGANPQLRSLLLNPAPPQTGVPPPQASLHHLQPPGAPTLLPPHQSMGQPQLGPQLLHPPPAQSWPTQLPQRAPLPGQMLLSGGPRGPVPQPGLQPSVMEDDILMDLI
2 | binds | binds | binds | binds | MED15 (natural protein, Mus musculus (endogenous in CH12 cells), UniProt Q924H2 1-789, looked up) MDVSGQETDWRSAAFRQKLVSQIEDAMRKAGVAHSKSSKDMESHVFLKAKTRDEYLSLVARLIIHFRDIHNKKSQASVSDPMNALQSLTGGPTPGAAGIGMPPRGPGQSLGGMGGLGAMGQPLPLSGQPPPGTSGMAPHGMAVVSTATPQTQLQLQQVALQQQQQQQQQQQFQQQQAALQQQQQQQQQQQQQQQFQAQQNAMQQQFQAVVQQQQLQQQQQQQHLIKLHHQSQQQQIQQQQLQRMAQLQLQQQQQQQQQQALQAQPPMQQPSMQQPQPPPSQALPQQLSQLHHPQHHQPPPQAQQSPIAQNQPPQIPPQSQSQPLVSQAQALPGPMLYAAQQQLKFVRAPMVVQQPQVQPQVQQVQPQVQPQAAVQAAQSAQMVAPGVQMIAEALAQGGMHVRARFPPTSTMSAGPSSSISLGGQPTTQVSQSSLTMLSSPSPGQQVQTPQSMPPPPQPSPQPGSQPNSNVSSGPAPSPSSFLPSPSPQPSQSPVTARTPQNFSVPSPGPLNTPVNPSSVMSPAGSSQAEEQQYLDKLKQLSKYIEPLRRMINKIDKNEDRKKDLSKMKSLLDILTDPSKRCPLKTLQKCEIALEKLKNDMAVPTPPPPPVLPTKQQDLCQPLLDAVLANIRSPVFNHSLYRTFVPAMMAIHGPPIVSPVVCSRKRRFEEDERQSIPNVLQGEVARLDPKFLVNLDPSHCSNNGTVHLICKLDDKDLPSVPPLELSVPADYPAQSPMWIDRQWQYDANPFLQSVHRCMTSRLLQLPDKHSVTALLNTWAQSIHQACLSAA
